Reference: article PMC8444450 (2021)

Tests used:
[1] = target: T1, SARS-CoV-2 spike receptor-binding domain (amino acids 333–529), bacteria-expressed and refolded (SARS-CoV-2, UniProt P0DTC2 333-529); assay: SPR
[2] = target: T1, SARS-CoV-2 spike receptor-binding …; assay: SPR; remark: listed apart in the source

Binder | koff [1] [s⁻¹] | Kd [2] [nM]
sybody Sb68 (VHH) VHH: QVQLVESGGGSVQAGGSLRLSCAASGSISSITYLGWFRQAPGKEREGVAALITVNGHTYYADSVKGRFTVSLDNAKNTVYLQMNSLKPEDTALYYCAAAAWGYAWPLHQDDYWYWGQGTQVTVSA | 0.023 | –
sybody Sb14 (VHH) VHH: QVQLVESGGGLVQAGGSLRLSCAASGFPVQAREMEWYRQAPGKEREWVAAIKSTGTYTAYAYSVKGRFTISRDNAKNTVYLQMNSLKPEDTAVYYCYVYVGSSYIGQGTQVTVSA | 0.007 | 13.8
sybody Sb16 (VHH) VHH: QVQLVESGGGLVQAGGSLRLSCAASGFPVAYKTMWWYRQAPGKEREWVAAIESYGIKWTRYADSVKGRFTISRDNAKNTVYLQMNSLKPEDTAVYYCIVWVGAQYHGQGTQVTVSA | 0.02 | 40.6
sybody Sb15 (VHH) VHH: QVQLVESGGGLVQAGGSLRLSCAASGFPVKNFEMEWYRKAPGKEREWVAAIQSGGVETYYADSVKGRFTISRDNAKNTVYLQMNSLKPEDTAVYYCFVYVGRSYIGQGTQVTVS | 0.011 | –
